Like-named read-outs stand apart in the source and are kept apart here.
T1: human GARP protein not in any GARP/TGFβ1 complex (protein used in ELISA and Octet) (human, UniProt Q14392 20-627, limits assumed)
T1 construct: Coated on plates at 2 µg/ml in the ELISA; also called hGARP; human GARP alone
T1 sequence (looked up): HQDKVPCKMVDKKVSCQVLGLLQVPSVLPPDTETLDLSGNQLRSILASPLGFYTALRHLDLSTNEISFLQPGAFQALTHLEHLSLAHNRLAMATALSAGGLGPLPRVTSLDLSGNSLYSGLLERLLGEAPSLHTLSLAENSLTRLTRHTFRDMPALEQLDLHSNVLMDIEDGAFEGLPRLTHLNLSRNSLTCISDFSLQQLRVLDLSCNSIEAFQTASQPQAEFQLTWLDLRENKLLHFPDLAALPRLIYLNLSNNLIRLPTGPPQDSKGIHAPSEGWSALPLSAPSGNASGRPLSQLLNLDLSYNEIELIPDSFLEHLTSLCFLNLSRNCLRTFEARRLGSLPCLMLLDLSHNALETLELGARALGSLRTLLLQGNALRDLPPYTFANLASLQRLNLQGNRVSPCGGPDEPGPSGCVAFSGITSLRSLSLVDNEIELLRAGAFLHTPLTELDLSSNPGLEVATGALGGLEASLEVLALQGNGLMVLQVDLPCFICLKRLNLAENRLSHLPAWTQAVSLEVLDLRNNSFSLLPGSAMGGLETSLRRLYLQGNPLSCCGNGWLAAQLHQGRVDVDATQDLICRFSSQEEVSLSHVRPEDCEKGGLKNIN


Assays:
[1] = target: T2, human GARP/latent TGFβ1 complex on cells (human, UniProt Q14392 20-662; P01137 30-390); experiment: flow cytometry on human GARP/latent TGFβ1 transfected CHO-S cells, goat anti-human IgG(H+L) FITC
T2 construct: whole, on cells; also called human GARP/TGFβ1 complex; human GARP/TGFβ complex

[2] = target: T3, human GARP/TGFβ1 complex (protein used in ELISA and Octet) (human, UniProt Q14392 20-627; P01137 30-390, limits assumed); experiment: Octet
T3 construct: Coated on plates at 4 µg/ml in the ELISA; also called hGARP/TGFβ1; human GARP/latent TGFβ1 complex

[3] = target: T2, human GARP/latent TGFβ1 complex on cells; experiment: flow cytometry on human GARP/latent TGFβ1 transfected CHO-S cells, goat anti-human IgG(H+L) FITC; remark: listed apart in the source
[4] = target: T4, mouse GARP/latent TGFβ1 complex on transfected CHO-S cells (mouse); experiment: flow cytometry on mouse GARP/latent TGFβ1 transfected CHO-S cells, goat anti-human IgG(H+L) FITC
T4 construct: also called mouse GARP/TGFβ1 complex; mouse GARP/TGFβ complex

[5] = target: T1, human GARP protein not in any …; experiment: Octet

Binder	EC50 (read off the curve) [1] [µg/mL]	Kd [2] [nM]	EC50 (read off the curve) [3] [µg/mL]	EC50 (read off the curve) [4] [µg/mL]	Kd [5] [nM]
Clone GA1#7 (antibody, V domains shown) VH: QVQLVQSGGGVVQPGRSLRLSCAASGFTFSSYAMHQVRQAPGKGLEWVAVISYDGSQKYYADSVKGRFTISRDNSKNTLYLQMNSLRAEDTAVYYCARDALRTYYYYGMDVWGQGTTVTVSS VL: SYELTQPPSVSVSPGQTARITCSGDALPDRYTYWYQQKPGQAPVLVIYSDNERPSGIPERFSGSSSGTTATLTINGVQAEDEADYYCQSSDDTYTFGGGTKLTVL	~1	–	–	–	–
Clone GA1#8 (antibody, V domains shown) VH: QVQLVQSGGGVVQPGRSLRLSCAASGFTFSSYAMHQVRQAPGKGLEWVASISYDGSNKYYADSVKGRFTISRDNSKNTLYLQMNSLRAEDTAVYYCARDALRTYYYQGMDVWGQGTTVTVSS VL: SYELTQPPSVSVSPGQTARITCSGDALPDRYTYWYQQKPGQAPVLVIYSDNERPRGIPERFSGSSSGTTATLTINGVQAEDEADYYCQSADYTYTFGGGTKLTVL	~1	0.281	–	–	–
Clone GA1 (antibody, V domains shown) VH: QVQLVQSGGGVVQPGRSLRLSCAASGFTFSSYAMHQVRQAPGKGLEWVAVISYDGSNKYYADSVKGRFTISRDNSKNTLYLQMNSLRAEDTAVYYCARDVLRTYYYYGMDVWGQGTTVTVSS VL: SYELTQPPSVSVFPGQTARITCSGDALPDRYTYWYQQKPGQAPVLVIYSDNERPSGIPERFSGSSSGTIATLTINGVQAEDEADYYCQSADDTYTFGGGTKLTVL	~1	–	~0.6	~0.2	–
Clone hGA17 (antibody, human IgG1, kappa, V domains shown, Humanized form of mouse clone GA17; kappa light chain) VH: QVQLVQSGAEVKKPGASVKVSCKASGFNIKDTYFHWVRQAPGQGLEWMGRIDPTNGNGRYAQKFQGRVTMTRDTSTSTVYMELSSLRSEDTAVYYCATSTGTGYFALVYWGQGTTVTVSS VL: DIQLTQSPSFLSASVGDRVTITCKASQNVGSAVAWYQQKPGKAPKLLIYWSSTRHTGVPSRFSGSGSGTEFTLTISSLQPEDFATYYCQQYSNYPLTFGGGTKLEIKR	–	0.696	–	–	0.429

From patent publication US20230340098A1 (SHANGHAI HENLIUS BIOTECH, published 2023)
